Assay results published in the nanobody polyreactivity screen of Harvey et al. (2022).

assay: yeast display, Sf9 membrane polyspecificity reagent, FACS + sequencing; frameworks hold sequencing errors
Outline: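 Polyreactivity labels are assigned by the sorting gate from which each nanobody was recovered. The gates were low and high (top ~1%), set on anti-HA fluorescence for expression and streptavidin fluorescence for reagent binding. Before sorting, galactose-induced (36–48 hours) yeast display cells were stained for 1 hour at 4 °C with 10% biotinylated, detergent-solubilized Sf9 membrane reagent.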

Row | Sequence | polyreactivity (PSR sort gate)
1 | QVQLVESGGGLVQAGGSLRLSCAASGFIFASNAMGWYRQAPGKERELVAGITKSGGSTYYADSVKGRFTISRDNAKNTVYLQMNSLKPEDTAVYYCAKVSYARAKSSGFYYWGQGTQVTVSS | high polyreactivity
2 | QVQLVESGGGLVQAGGSLRLSCAASGFIFASNAMGWYTQAPGKERELVASITIGDSTYYADSVKGRFTISRDNAKNTVYLQMNSLKPEDTAVYYCAAVKTVDVGYDYWGQGTQVTVSS | low polyreactivity
3 | QVQLVESGGGLVQAGGSLRLSCAASGFIFASYAMGWYRQAPGKERELVAAISSSGGRTYYADSVKGRFTISRDNAKNTVYLQMNSLKPEDTAVYYCAADWRVTYDYWGQGTQVTVSS | high polyreactivity
4 | QVQLVESGGGLVQAGGSLRLSCAASGFIFASYAMGWYRQAPGKERELVATITRNGGITYYADSVKGRFTISRDNAKNTVYLQMNSLKPEDTAVYYCAKRRSGKSNVSFYPYAYDYWGQGTQVTVSS | low polyreactivity
5 | QVQLVESGGGLVQAGGSLRLSCAASGFIFATNTMGWYRQAPGKERELVAASSTYYADSVKGRFTISRDNAKNTVYLQMNSLKPEDTAVYYCNADRDSYIGFDLSESDYWGQGTQVTVSS | low polyreactivity
6 | QVQLVESGGGLVQAGGSLRLSCAASGFIFATYAMGWYRQAPGKERELVASINWSGGRTYYADSVKGRFTISRDNAKNTVYFQMNSLKPEDTEVYYCAARISTRYEYWGHGTQVTVSS | high polyreactivity
7 | QVQLVESGGGLVQAGGSLRLSCAASGFIFATYNMGWYRQAPGKERELVAAITWRGGSTYYADSVKGRFTISRDNAKITVYLQMNSLKPEDTAVYYCAAQDVYSYRYVEDDYWGQGTQVTVSS | low polyreactivity
8 | QVQLVESGGGLVQAGGSLRLSCAASGFIFAWYAMGWYRQAPGKERELVAAITSSGTSTYYADSVKGRFTISRDNAKNTVYLQMNSLTPEDTAVYYCAAVTKRYLAYDYWGQGTQVTVSS | high polyreactivity
9 | QVQLVESGGGLVQAGGSLRLSCAASGFIFAYYAMGWYRQAPGKERELVAAISSRGGTYYADSVKGRFTISRDNAKNTVYFQMNSLKPEDTAVYYCAAASYTWVSRGYEYWGQGTQVTVSS | high polyreactivity
10 | QVQLVESGGGLVQAGGSLRLSCAASGFIFDDNAMGWYRQAPGKERELVAAITSGGGTTYYADSVKGRFTISRDTAKNTVYLQMNSLKPEDTAVYYCNAVPSQHDEFDYWGQGTQVTVSS | low polyreactivity
11 | QVQLVESGGGLVQAGGSLRLSCAASGFIFDKNAMGWYRQAPGKERELVATITSGGSTYYADSVKGRFTISRDNAKNTVYFQMNSLKPDETAVYYCAALDYGYRWYRYYYWGQGTQVTVSS | high polyreactivity
12 | QVQLVESGGGLVQAGGSLRLSCAASGFIFDLYAMGWYRQAPGKERELVAVISYDGGSTYYADSVKGRFTISRDNAKNTVYLQMNSLNPEDTAVYYCNTYAGLVSPSDLYDYWGQGTQVTVSS | low polyreactivity
13 | QVQLVESGGGLVQAGGSLRLSCAASGFIFDQNAMGCYRQAPGKEREFVAAISSRGSRTYYADSVKGRFTISRDKAKNTVYLQMNSLKPEDTAVYDCAAGYWARLYDYDYWGQGTQVTVSS | high polyreactivity
14 | QVQLVESGGGLVQAGGSLRLSCAASGFIFDRYAMGWYRQAPGKERELVAAIDTASSTNYADSVKGRFTISRDNAKNTVDLQMNSLKPEDTAVYYCNASGYYYVIYWKVSNYNYWGQGTQVTVSS | low polyreactivity
15 | QVQLVESGGGLVQAGGSLRLSCAASGFIFDRYDMGWYRQAPGKERELVAAISYSGGSTYYADSVKGRFSISRDNAKNTVYFQMNSLKPEDTAVYYCATRVGYFYYEYSYDYWGQGTQVTVSS | low polyreactivity
16 | QVQLVESGGGLVQAGGSLRLSCAASGFIFDSYAMGWNRQAPGKERELVAAIDKRGGRTYYADSVKGRFTISRDNGKNTVYLQMNSLKPEDTAVYYCAADDYTGYGYWGQGTQVTVSS | high polyreactivity
17 | QVQLVESGGGLVQAGGSLRLSCAASGFIFDSYVMGWYRQAPGKEREMVAAISSGGASTYYADSVKGRFTISRDNAKNTVYLQMNSLKPEDTAVYYCAAEYLYQPWGVDYDYWGQGSQVTVSS | high polyreactivity
18 | QVQLVESGGGLVQAGGSLRLSCAASGFIFDTYALGWYRQAPGKERELVAVMSSSGGRTYYADSVKGRFTISRDNAKNTVYLQMNSLKPEDNAVYYCAARWYSGYGRFDYWGQGTQVTVSS | high polyreactivity
19 | QVQLVESGGGLVQAGGSLRLSCAASGFIFDTYAMGWYRQAPGKERDLVAVISSGGSTYYADSVKGRVTISRDNAKNTVYLQMNSLKPEDTAVYYCAADSGYLGIYGDDYSWGQGTQVSVSS | low polyreactivity
20 | QVQLVESGGGLVQAGGSLRLSCAASGFIFDWYAMGWYRQAPGKERELVAAISYSGGSTYYADSVKGRFTISRDNAKNTVYLQMNSLKPEDTAVYYCNADIWYGDMDYWGQGTQVTVSS | high polyreactivity
21 | QVQLVESGGGLVQAGGSLRLSCAASGFIFDYYAMGWYRQAPGKERELVAAITSRGGSTYYADSVKGRFTISRDNAKNTVYLQMNSLKPEDTAVYYCNKDPHYYATGRFYYWGQGTQVTVSS | high polyreactivity
22 | QVQLVESGGGLVQAGGSLRLSCAASGFIFDYYAMGWYRQAPGKERELVASISGDDGRTYYADSVKGRFTISRDNAKNTVYLQMNSLKPEDTAVYYCNAEWGVLNYDYWGQGTQVTVSS | low polyreactivity

Row | Sequence | polyreactivity (PSR sort gate)
23 | QVQLVESGGGLVQAGGSLRLSCAASGFIFEHYAMGWYRQAPVKERELVARISWRGGSTYYADSVKGRFTISRDNAKNTVYLQMNRLKPEDTAVYYCNALEVVYFGYYPSDYWGQGTQVTVSS | low polyreactivity
24 | QVQLVESGGGLVQAGGSLRLSCAASGFIFETYAMGWYRQAPGKERELVAAISRGASTYYADSVKGRFTISRDNAKNTVSLQMNSLKQEDTGVYYCAAKRLSWHRYGYWGQGTQVTVSS | low polyreactivity
25 | QVQLVESGGGLVQAGGSLRLSCAASGFIFEWYTMGWYRQAPGKERELVARISSDGSTTYADSVKGRFTISRDNAKNTVYLQMNSLKPEDTAVYYCAADVTYPGLKYIFDYWGQGTQVTVSS | low polyreactivity
26 | QVQLVESGGGLVQAGGSLRLSCAASGFIFEYNTMGWYIQAPGKERELVAAISFIGGRTYYADSVKRRFTLSRDNAKNTVYLQMNSLKPVDTAVNYCNKRYGGYYSGARRVLYYYWGQGTQVTVSS | high polyreactivity
27 | QVQLVESGGGLVQAGGSLRLSCAASGFIFFINDMGWYRQAPGKERELVAAISWSGGSTYYADSVKGRFTISRDNAKNTVYLQMNSLKPEDTAVYYCNTDVPTAQYDYWGQGTQVTVSS | low polyreactivity
28 | QVQLVESGGGLVQAGGSLRLSCAASGFIFFKNAMGWYRQAPGKERELVDVISTSGGRTYYADSVKGRFTISRDYAKNTVYLQMNSLKPEDTAVYYCAAGDQYKTRRNGYGYWGQGTQVTVSS | high polyreactivity
29 | QVQLVESGGGLVQAGGSLRLSCAASGFIFFRYAMGWYRQAPGKERELVAAISTRTGITYYSDSVKGRFTISRDNAKNNVYLQMNRLKPEDTAVYDRNVLRSHSLYPFWKYDYWGQGTQVTVSS | high polyreactivity
30 | QVQLVESGGGLVQAGGSLRLSCAASGFIFFSNAMGWYRQAPGKEMELVAAISRIGVSTYYADSLKGRFTISRDNAKNTVYLQMKSLKPEYTAVYYCNKSNPDYDGLAIHAFDYWGQGTQVTVSS | low polyreactivity
31 | QVQLVESGGGLVQAGGSLRLSCAASGFIFFTYAMGWYRQAPGKERELVAAISSRGGSTYYADSVQGRFTISRDNAKKTVYLQMNSLKPEDTAVYYCAAQAYGGYPYGYWGQGTQVTVSS | high polyreactivity
32 | QVQLVESGGGLVQAGGSLRLSCAASGFIFFYYAMGWYRQAPGKERELVAAISASGGSTYYADSVKGRFTMSRDNAKNTVYLQMNSLKPEDTAVYYCATDPISRARLYGQRDYWGQGTQVTVSS | high polyreactivity
33 | QVQLVESGGGLVQAGGSLRLSCAASGFIFFYYAMGWYRQAPGKERELVASINWSGGRTYYADSVKGRFTISRDNAKNTVYLQMNSLKPEDTAVYYCAADRRFSTYDYWGQGTQVTVSS | high polyreactivity
34 | QVQLVESGGGLVQAGGSLRLSCAASGFIFFYYAMGWYRQAPGKERELVAVIDRSGGTTYYADSVKGRFTISRDNAKNTVYFQMNILKPEDTAVYYCNADDFTYPSGWGFIYDYWGQGTQVTVSS | low polyreactivity
35 | QVQLVESGGGLVQAGGSLRLSCAASGFIFGDNAMGWYRQAPGKERELVAAINSGSRTSYADSVKGRFTISRDNAKNTVFLQMNSLKPEDTAVYYCAAESVSSGDNASRYDFWGQGTQVTVSS | low polyreactivity
36 | QVQLVESGGGLVQAGGSLRLSCAASGFIFGFYAMGWYRQAPGKERELVADITSSGGSTYYADSVKGRFTISRDNAKYSVYLQMNSLKPEDTAVYYCAADGWWHNFYPGTGLDYWGQGTQVTVSS | low polyreactivity
37 | QVQLVESGGGLVQAGGSLRLSCAASGFIFGGNAMGWYRQAPGKERELVAAISSGGRTYYADSVKGRFTISRDNAKNTVYLQMNSLKPEDTAVYYCNAYSYHRGRDYWGQGTQVTVSS | low polyreactivity
38 | QVQLVESGGGLVQAGGSLRLSCAASGFIFGGNAMGWYRQAPGKERELVAAITARSGSTYYADSVKGRFTISRDNAKNTVYLQMNSLKPEDTAVYYCATPVYRSTYEYDYWGQGTQVTVSS | low polyreactivity
39 | QVQLVESGGGLVQAGGSLRLSCAASGFIFGGYAMGWSRQAPGKERELVAAISRSGGSTYYADSVKGRFTISRDNAKNTVYLQMNSLKPEDTAVYYCNAVPRRQGFNYWGQGTQVTVSS | high polyreactivity
40 | QVQLVESGGGLVQAGGSLRLSCAASGFIFGGYAMGWYIQGHGKERELVAAISSSGGSTYYADSVKGRFTISRDNAKNSVYLQMNSLKPEDTAVYYCAKVGWSRRYYYWGQGTKVTVSS | high polyreactivity
41 | QVQLVESGGGLVQAGGSLRLSCAASGFIFGGYAMGWYRQAPGKERELVAAISRSGGSTYYADSVKGRFTISRDNAKNTVYLQMNSLKPEDTAVYYCAAKFWPEDHRMDYWGQGTQVTVSS | low polyreactivity
42 | QVQLVESGGGLVQAGGSLRLSCAASGFIFGGYAMGWYRQAPGKERELVAAISRSGGSTYYADSVKGRFTISRDNGKNTLNLKMNSLKREDTAVYYCNAVPRRQGFNYWGQGTQVTVSS | high polyreactivity
43 | QVQLVESGGGLVQAGGSLRLSCAASGFIFGKYAMGWYRQAHGKERELVAAITSDGRTYYADSVKGRFTISRDNAKNTVYLQMNSLKPEDTAVYYCAATRYGHRYYYRPYEYWGQGTQVTVSS | high polyreactivity
